Experimental data from patent publication US11932908B2, “Compositions and methods for diagnosis and treatment of epilepsy” (THE REGENTS OF THE UNIVERSITY OF CALIFORNIA, priority 2004, dated 2024).
“Also recorded” adds a separate entry of the source.

Tests used:
[1] = system: mouse hippocampal primary culture neurons; settings: 24, 36 and 48 hours after transfection; mutants compared to wild-type EFHC1
Protocol: Mouse hippocampal neurons primary culture. Hippocampal neurons were isolated from embryonic day 16 mice and plated at 1-2×10^5 cells per well in 24 well plate containing glass coverslips coated with poly-1-lysine and grown in serum-free NEUROBASAL™ media supplemented with B27, 0.5 mM L-glutamine (Invitrogen).
Transfection and immunostaining of mouse hippocampal neurons. […] Cultures were fixed with 4% paraformaldehyde in PBS 16 and 48 hours after transfection, permeabilized with 0.3% Triton X-100, blocked in 3% normal goat serum in PBS, and treated with mouse monoclonal anti-MAP-2 antibody (1:500; Sigma) and Alexa fluor 594 goat anti-mouse IgG antibody (1:1000; Molecular Probes).
TUNEL assay. […] Forty-eight hours after transfection, neuronal apoptosis was detected using DeadEndTM Fluorometric TUNEL System (Promega). Nuclei were visualized with Hoescht 33342 (Molecular Probes). These cells were also stained with anti-Myc antibody (1:200; Cell Signaling) and Alexa fluor 594 goat anti-rabbit IgG antibody (1:1000). All experiments were carried out in duplicate wells and at least repeated three times. Neuron cells were observed on a confocal microscope (OLYMPUS FLUOVIEW) following 48 hours post transfection.
Cell death analyses with EFHC1 mutants. […] Surviving cell numbers were scored by counting GFP fluorescent-positive cells that attached to dishes. At each counting, detached cells (dead cells) were carefully removed by changing culture medium. Morphologies of cells (cell shape, length and number of neurites, shrinkage, etc.) were not considered for the counting. Surviving cell numbers were scored at 24, 36, and 48 hours after transfection. Analyses were repeated twice by using two independently prepared expression construct DNAs. In total, neurons in seven wells of 24 well plates were counted for each transfection and time point. Experiments were performed in a blinded fashion.

[2] = molecular target: T1, PQ type VDCC (Cav2.1) (Oryctolagus cuniculus, UniProt P27884); test: Patch-clamp analyses of HEK cell line with P/Q type VDCCs and wild type EFHC1 or mutant constructs; assay type: cell-based; settings: for Activation V0.5 (mV): half-maximal voltage of activation; for Activation V0.5 (mV) / Inactivation V0.5 (mV) / Activation k (mV) / Inactivation K (mV): mean ± SEM; for Inactivation V0.5 (mV): half-maximal voltage of inactivation; for inactivation speed of P/Q type VDCC (decelerating effect on calcium inactivation): patch-clamp; for Activation k (mV) / Inactivation K (mV): slope factor
T1 construct: expressed in transfected cells; host or cells: HEK cell line
T1 sequence (P27884 whole entry): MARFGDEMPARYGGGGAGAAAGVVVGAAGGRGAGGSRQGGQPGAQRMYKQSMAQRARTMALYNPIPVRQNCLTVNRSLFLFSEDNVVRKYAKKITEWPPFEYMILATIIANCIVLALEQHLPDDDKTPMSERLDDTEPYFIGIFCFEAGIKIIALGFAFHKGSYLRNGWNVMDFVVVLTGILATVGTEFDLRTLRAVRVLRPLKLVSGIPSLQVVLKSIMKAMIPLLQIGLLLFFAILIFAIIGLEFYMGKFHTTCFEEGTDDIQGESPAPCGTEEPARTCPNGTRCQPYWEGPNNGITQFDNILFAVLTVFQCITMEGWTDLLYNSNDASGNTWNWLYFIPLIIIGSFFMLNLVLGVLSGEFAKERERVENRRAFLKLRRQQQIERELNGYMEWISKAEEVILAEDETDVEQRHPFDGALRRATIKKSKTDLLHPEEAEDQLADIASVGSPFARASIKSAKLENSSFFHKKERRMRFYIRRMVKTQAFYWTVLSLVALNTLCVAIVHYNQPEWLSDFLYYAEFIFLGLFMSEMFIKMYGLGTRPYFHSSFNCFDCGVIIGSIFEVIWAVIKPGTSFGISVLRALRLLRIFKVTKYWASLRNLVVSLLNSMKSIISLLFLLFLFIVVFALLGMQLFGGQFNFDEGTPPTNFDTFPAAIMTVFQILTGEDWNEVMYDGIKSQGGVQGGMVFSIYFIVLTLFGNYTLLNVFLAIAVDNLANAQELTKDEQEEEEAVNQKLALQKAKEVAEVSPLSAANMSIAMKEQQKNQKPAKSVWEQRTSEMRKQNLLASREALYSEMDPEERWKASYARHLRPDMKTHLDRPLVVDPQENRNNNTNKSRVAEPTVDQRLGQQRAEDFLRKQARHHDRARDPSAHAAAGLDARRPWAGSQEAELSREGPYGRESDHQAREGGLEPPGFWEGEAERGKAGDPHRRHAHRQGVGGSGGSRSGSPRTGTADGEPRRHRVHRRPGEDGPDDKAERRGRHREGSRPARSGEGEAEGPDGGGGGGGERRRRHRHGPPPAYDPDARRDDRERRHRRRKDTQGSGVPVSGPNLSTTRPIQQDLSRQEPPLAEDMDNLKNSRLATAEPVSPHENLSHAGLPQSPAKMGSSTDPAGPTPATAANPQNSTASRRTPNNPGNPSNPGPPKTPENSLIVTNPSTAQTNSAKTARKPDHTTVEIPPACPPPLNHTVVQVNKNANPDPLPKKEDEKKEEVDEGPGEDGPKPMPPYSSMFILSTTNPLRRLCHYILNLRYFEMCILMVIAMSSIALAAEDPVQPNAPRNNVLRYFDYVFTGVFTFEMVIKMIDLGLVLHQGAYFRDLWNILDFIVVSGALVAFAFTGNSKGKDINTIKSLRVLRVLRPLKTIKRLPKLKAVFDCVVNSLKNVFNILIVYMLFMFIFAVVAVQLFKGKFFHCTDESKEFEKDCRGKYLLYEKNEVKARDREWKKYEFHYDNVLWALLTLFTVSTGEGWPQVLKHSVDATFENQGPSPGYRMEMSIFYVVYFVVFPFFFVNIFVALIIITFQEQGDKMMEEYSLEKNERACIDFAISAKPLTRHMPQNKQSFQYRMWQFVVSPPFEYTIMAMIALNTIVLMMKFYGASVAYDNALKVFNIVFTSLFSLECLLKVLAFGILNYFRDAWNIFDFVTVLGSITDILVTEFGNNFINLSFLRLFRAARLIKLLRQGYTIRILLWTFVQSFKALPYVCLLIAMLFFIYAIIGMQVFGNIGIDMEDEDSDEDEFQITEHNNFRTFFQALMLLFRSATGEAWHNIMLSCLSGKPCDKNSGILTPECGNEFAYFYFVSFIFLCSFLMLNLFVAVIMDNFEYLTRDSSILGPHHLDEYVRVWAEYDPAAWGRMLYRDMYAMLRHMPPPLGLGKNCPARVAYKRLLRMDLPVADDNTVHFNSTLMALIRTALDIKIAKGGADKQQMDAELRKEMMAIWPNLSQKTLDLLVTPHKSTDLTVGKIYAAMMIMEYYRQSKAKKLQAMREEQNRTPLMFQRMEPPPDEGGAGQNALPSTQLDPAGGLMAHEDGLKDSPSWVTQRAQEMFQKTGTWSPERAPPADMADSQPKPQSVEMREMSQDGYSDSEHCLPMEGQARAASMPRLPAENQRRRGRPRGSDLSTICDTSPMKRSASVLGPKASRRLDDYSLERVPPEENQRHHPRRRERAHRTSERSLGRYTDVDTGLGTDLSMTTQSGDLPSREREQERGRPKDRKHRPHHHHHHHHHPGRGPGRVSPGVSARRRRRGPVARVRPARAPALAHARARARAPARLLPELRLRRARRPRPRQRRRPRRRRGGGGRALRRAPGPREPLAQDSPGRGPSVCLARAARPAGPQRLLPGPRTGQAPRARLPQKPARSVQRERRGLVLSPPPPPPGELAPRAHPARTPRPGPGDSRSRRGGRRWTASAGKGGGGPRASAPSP
T1 sequence (P13806 27-1106 partner): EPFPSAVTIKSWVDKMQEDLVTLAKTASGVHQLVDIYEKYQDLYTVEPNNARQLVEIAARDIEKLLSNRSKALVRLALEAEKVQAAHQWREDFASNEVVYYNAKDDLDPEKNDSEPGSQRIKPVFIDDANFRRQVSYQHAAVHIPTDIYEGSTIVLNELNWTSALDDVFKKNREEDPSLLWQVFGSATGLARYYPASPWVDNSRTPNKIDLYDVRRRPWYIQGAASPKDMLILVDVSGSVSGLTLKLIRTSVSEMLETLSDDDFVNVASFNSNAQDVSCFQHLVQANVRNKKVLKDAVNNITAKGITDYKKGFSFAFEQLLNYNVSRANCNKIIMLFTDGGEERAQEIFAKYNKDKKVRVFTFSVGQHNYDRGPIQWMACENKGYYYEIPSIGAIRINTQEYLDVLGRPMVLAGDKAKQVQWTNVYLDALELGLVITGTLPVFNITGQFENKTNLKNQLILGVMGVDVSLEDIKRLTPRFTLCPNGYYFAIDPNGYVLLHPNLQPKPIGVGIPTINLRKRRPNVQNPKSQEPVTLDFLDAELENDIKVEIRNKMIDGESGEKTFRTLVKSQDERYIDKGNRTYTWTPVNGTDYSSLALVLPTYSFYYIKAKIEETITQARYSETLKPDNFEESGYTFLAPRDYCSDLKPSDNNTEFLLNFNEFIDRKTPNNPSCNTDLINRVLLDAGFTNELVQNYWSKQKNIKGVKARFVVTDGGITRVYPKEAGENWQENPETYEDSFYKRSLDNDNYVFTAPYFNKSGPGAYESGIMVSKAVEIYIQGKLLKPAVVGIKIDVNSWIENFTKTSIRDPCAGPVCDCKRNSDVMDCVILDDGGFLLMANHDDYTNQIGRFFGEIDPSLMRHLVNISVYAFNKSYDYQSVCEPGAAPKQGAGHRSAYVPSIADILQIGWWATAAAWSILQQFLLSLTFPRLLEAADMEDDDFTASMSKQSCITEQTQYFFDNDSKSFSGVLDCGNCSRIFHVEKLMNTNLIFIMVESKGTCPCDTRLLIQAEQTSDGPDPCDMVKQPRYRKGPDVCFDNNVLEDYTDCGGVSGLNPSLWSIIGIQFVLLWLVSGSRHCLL
T1 sequence (P19517 whole entry partner): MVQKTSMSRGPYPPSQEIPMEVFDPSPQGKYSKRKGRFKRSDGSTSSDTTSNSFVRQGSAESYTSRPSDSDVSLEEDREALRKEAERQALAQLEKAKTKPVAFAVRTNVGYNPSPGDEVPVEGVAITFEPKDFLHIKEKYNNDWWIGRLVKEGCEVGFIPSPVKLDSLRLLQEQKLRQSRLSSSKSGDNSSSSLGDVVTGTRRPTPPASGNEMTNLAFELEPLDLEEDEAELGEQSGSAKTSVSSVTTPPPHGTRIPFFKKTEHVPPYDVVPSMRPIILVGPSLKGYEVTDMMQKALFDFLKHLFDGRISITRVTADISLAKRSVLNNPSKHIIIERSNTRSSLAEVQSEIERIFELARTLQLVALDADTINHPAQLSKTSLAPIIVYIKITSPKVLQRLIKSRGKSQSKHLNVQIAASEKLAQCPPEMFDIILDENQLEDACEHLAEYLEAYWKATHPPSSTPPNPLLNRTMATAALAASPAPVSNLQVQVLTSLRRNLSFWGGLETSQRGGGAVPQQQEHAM

| Activation V0.5 (mV) [2] | Inactivation V0.5 (mV) [2] | inactivation speed of P/Q type VDCC (decelerating effect on calcium inactivation) [2] | Activation k (mV) [2] | Inactivation K (mV) [2] | Ca2+ current density of P/Q-type VDCC (Cav2.1) ([2]; cells co-transfected with P/Q-type VDCC and EFHC1 constructs) | Molecule | cell-death effect (GFP-positive surviving cell numbers) [1] |
| --- | --- | --- | --- | --- | --- | --- | --- |
|  |  |  |  |  |  | P77T/R221H: EFHC1 protein with the double mutation P77T and R221H (protein) MVSNPVHGLPFLPGTSFKDSTKTAFHRSQTLSYRNGYAIVRRPTVGIGGDRLQFNQLSQAELDELASKAPVLTYGQTKQAPPADFIPAHVAFDKKVLKFDAYFQEDVPMSTEEQYRIRQVNIYYYLEDDSMSVIEPVVENSGILQGKLIKRQRLAKNDRGDHYHWKDLNRGINITIYGKTFRVVDCDQFTQVFLESQGIELNPPEKMALDPYTELRKQPLHKYVTPSDFDQLKQFLTFDKQVLRFYAIWDDTDSMYGECRTYIIHYYLMDDTVEIREVHERNDGRDPFPLLMNRQRVPKVLVENAKNFPQCVLEISDQEVLEWYTAKDFIVGKSLTILGRTFFIYDCDPFTRRYYKEKFGITDLPRIDVSKREPPPVKQELPPYNGFGLVEDSAQNCFTLIPKAPKKDVIKMLVNDNKVLRYLAVLESPIPEDKDRRFVFSYFLATDMISIFEPPVRNSGIIGGKYLGRTKVVKPYSTVDNPVYYGPSDFFIGAVIEVFGHRFIILDTDEYVLKYMESNAAQYSPEALASIQNHVRKREAPAPEAESKQTEKDPGVQELEALIDTIQKQLKDHSCKDNIREAFQIYDKEASGYVDRDMFFKICESLNVPVDDSLVKELIRMCSHGEGKINYYNFVRAFSN | significantly reduced; also recorded: significantly reversed |
| 24.1 ± 1.4 mV | −9.4 ± 1.4 mV | did not significantly affect | 9.08 ± 0.71 mV | 6.44 ± 0.33 mV |  | D210N: EFHC1 protein with JME missense mutation D210N (Asp210Asn) (protein) MVSNPVHGLPFLPGTSFKDSTKTAFHRSQTLSYRNGYAIVRRPTVGIGGDRLQFNQLSQAELDELASKAPVLTYGQPKQAPPADFIPAHVAFDKKVLKFDAYFQEDVPMSTEEQYRIRQVNIYYYLEDDSMSVIEPVVENSGILQGKLIKRQRLAKNDRGDHYHWKDLNRGINITIYGKTFRVVDCDQFTQVFLESQGIELNPPEKMALNPYTELRKQPLRKYVTPSDFDQLKQFLTFDKQVLRFYAIWDDTDSMYGECRTYIIHYYLMDDTVEIREVHERNDGRDPFPLLMNRQRVPKVLVENAKNFPQCVLEISDQEVLEWYTAKDFIVGKSLTILGRTFFIYDCDPFTRRYYKEKFGITDLPRIDVSKREPPPVKQELPPYNGFGLVEDSAQNCFTLIPKAPKKDVIKMLVNDNKVLRYLAVLESPIPEDKDRRFVFSYFLATDMISIFEPPVRNSGIIGGKYLGRTKVVKPYSTVDNPVYYGPSDFFIGAVIEVFGHRFIILDTDEYVLKYMESNAAQYSPEALASIQNHVRKREAPAPEAESKQTEKDPGVQELEALIDTIQKQLKDHSCKDNIREAFQIYDKEASGYVDRDMFFKICESLNVPVDDSLVKELIRMCSHGEGKINYYNFVRAFSN | significantly reversed |
| 17.7 ± 1.9 mV | −17.0 ± 2.5 mV | abolished the decelerating effect | 7.08 ± 0.81 mV | 7.00 ± 0.27 mV |  | R221H: EFHC1 protein with JME missense mutation R221H (Arg221His) (protein) MVSNPVHGLPFLPGTSFKDSTKTAFHRSQTLSYRNGYAIVRRPTVGIGGDRLQFNQLSQAELDELASKAPVLTYGQPKQAPPADFIPAHVAFDKKVLKFDAYFQEDVPMSTEEQYRIRQVNIYYYLEDDSMSVIEPVVENSGILQGKLIKRQRLAKNDRGDHYHWKDLNRGINITIYGKTFRVVDCDQFTQVFLESQGIELNPPEKMALDPYTELRKQPLHKYVTPSDFDQLKQFLTFDKQVLRFYAIWDDTDSMYGECRTYIIHYYLMDDTVEIREVHERNDGRDPFPLLMNRQRVPKVLVENAKNFPQCVLEISDQEVLEWYTAKDFIVGKSLTILGRTFFIYDCDPFTRRYYKEKFGITDLPRIDVSKREPPPVKQELPPYNGFGLVEDSAQNCFTLIPKAPKKDVIKMLVNDNKVLRYLAVLESPIPEDKDRRFVFSYFLATDMISIFEPPVRNSGIIGGKYLGRTKVVKPYSTVDNPVYYGPSDFFIGAVIEVFGHRFIILDTDEYVLKYMESNAAQYSPEALASIQNHVRKREAPAPEAESKQTEKDPGVQELEALIDTIQKQLKDHSCKDNIREAFQIYDKEASGYVDRDMFFKICESLNVPVDDSLVKELIRMCSHGEGKINYYNFVRAFSN | significantly reversed |
| 23.0 ± 3.2 mV | −15.8 ± 1.4 mV | abolished the decelerating effect | 8.87 ± 1.67 mV | 6.59 ± 0.44 mV | moderately increased | P77T: EFHC1 protein with JME missense mutation P77T (Pro77Thr) (protein) MVSNPVHGLPFLPGTSFKDSTKTAFHRSQTLSYRNGYAIVRRPTVGIGGDRLQFNQLSQAELDELASKAPVLTYGQTKQAPPADFIPAHVAFDKKVLKFDAYFQEDVPMSTEEQYRIRQVNIYYYLEDDSMSVIEPVVENSGILQGKLIKRQRLAKNDRGDHYHWKDLNRGINITIYGKTFRVVDCDQFTQVFLESQGIELNPPEKMALDPYTELRKQPLRKYVTPSDFDQLKQFLTFDKQVLRFYAIWDDTDSMYGECRTYIIHYYLMDDTVEIREVHERNDGRDPFPLLMNRQRVPKVLVENAKNFPQCVLEISDQEVLEWYTAKDFIVGKSLTILGRTFFIYDCDPFTRRYYKEKFGITDLPRIDVSKREPPPVKQELPPYNGFGLVEDSAQNCFTLIPKAPKKDVIKMLVNDNKVLRYLAVLESPIPEDKDRRFVFSYFLATDMISIFEPPVRNSGIIGGKYLGRTKVVKPYSTVDNPVYYGPSDFFIGAVIEVFGHRFIILDTDEYVLKYMESNAAQYSPEALASIQNHVRKREAPAPEAESKQTEKDPGVQELEALIDTIQKQLKDHSCKDNIREAFQIYDKEASGYVDRDMFFKICESLNVPVDDSLVKELIRMCSHGEGKINYYNFVRAFSN | significantly reversed |
|  |  |  |  |  |  | 1619L: EFHC1 protein with coding polymorphism I619L (protein, UniProt Q5JVL4 1-640, looked up, variant I619L) EF-hand domain-containing …: MVSNPVHGLPFLPGTSFKDSTKTAFHRSQTLSYRNGYAIVRRPTVGIGGDRLQFNQLSQAELDELASKAPVLTYGQPKQAPPADFIPAHVAFDKKVLKFDAYFQEDVPMSTEEQYRIRQVNIYYYLEDDSMSVIEPVVENSGILQGKLIKRQRLAKNDRGDHYHWKDLNRGINITIYGKTFRVVDCDQFTQVFLESQGIELNPPEKMALDPYTELRKQPLRKYVTPSDFDQLKQFLTFDKQVLRFYAIWDDTDSMYGECRTYIIHYYLMDDTVEIREVHERNDGRDPFPLLMNRQRVPKVLVENAKNFPQCVLEISDQEVLEWYTAKDFIVGKSLTILGRTFFIYDCDPFTRRYYKEKFGITDLPRIDVSKREPPPVKQELPPYNGFGLVEDSAQNCFALIPKAPKKDVIKMLVNDNKVLRYLAVLESPIPEDKDRRFVFSYFLATDMISIFEPPVRNSGIIGGKYLGRTKVVKPYSTVDNPVYYGPSDFFIGAVIEVFGHRFIILDTDEYVLKYMESNAAQYSPEALASIQNHVRKREAPAPEAESKQTEKDPGVQELEALIDTIQKQLKDHSCKDNIREAFQIYDKEASGYVDRDMFFKICESLNVPVDDSLVKELLRMCSHGEGKINYYNFVRAFSN | largely maintained |
|  |  |  |  |  |  | R159W: EFHC1 protein with coding polymorphism R159W (Arg159Trp) (protein) MVSNPVHGLPFLPGTSFKDSTKTAFHRSQTLSYRNGYAIVRRPTVGIGGDRLQFNQLSQAELDELASKAPVLTYGQPKQAPPADFIPAHVAFDKKVLKFDAYFQEDVPMSTEEQYRIRQVNIYYYLEDDSMSVIEPVVENSGILQGKLIKRQRLAKNDWGDHYHWKDLNRGINITIYGKTFRVVDCDQFTQVFLESQGIELNPPEKMALDPYTELRKQPLRKYVTPSDFDQLKQFLTFDKQVLRFYAIWDDTDSMYGECRTYIIHYYLMDDTVEIREVHERNDGRDPFPLLMNRQRVPKVLVENAKNFPQCVLEISDQEVLEWYTAKDFIVGKSLTILGRTFFIYDCDPFTRRYYKEKFGITDLPRIDVSKREPPPVKQELPPYNGFGLVEDSAQNCFTLIPKAPKKDVIKMLVNDNKVLRYLAVLESPIPEDKDRRFVFSYFLATDMISIFEPPVRNSGIIGGKYLGRTKVVKPYSTVDNPVYYGPSDFFIGAVIEVFGHRFIILDTDEYVLKYMESNAAQYSPEALASIQNHVRKREAPAPEAESKQTEKDPGVQELEALIDTIQKQLKDHSCKDNIREAFQIYDKEASGYVDRDMFFKICESLNVPVDDSLVKELIRMCSHGEGKINYYNFVRAFSN | largely maintained |
|  |  |  |  |  |  | R182H: EFHC1 protein with coding polymorphism R182H (Arg182His) (protein) MVSNPVHGLPFLPGTSFKDSTKTAFHRSQTLSYRNGYAIVRRPTVGIGGDRLQFNQLSQAELDELASKAPVLTYGQPKQAPPADFIPAHVAFDKKVLKFDAYFQEDVPMSTEEQYRIRQVNIYYYLEDDSMSVIEPVVENSGILQGKLIKRQRLAKNDRGDHYHWKDLNRGINITIYGKTFHVVDCDQFTQVFLESQGIELNPPEKMALDPYTELRKQPLRKYVTPSDFDQLKQFLTFDKQVLRFYAIWDDTDSMYGECRTYIIHYYLMDDTVEIREVHERNDGRDPFPLLMNRQRVPKVLVENAKNFPQCVLEISDQEVLEWYTAKDFIVGKSLTILGRTFFIYDCDPFTRRYYKEKFGITDLPRIDVSKREPPPVKQELPPYNGFGLVEDSAQNCFTLIPKAPKKDVIKMLVNDNKVLRYLAVLESPIPEDKDRRFVFSYFLATDMISIFEPPVRNSGIIGGKYLGRTKVVKPYSTVDNPVYYGPSDFFIGAVIEVFGHRFIILDTDEYVLKYMESNAAQYSPEALASIQNHVRKREAPAPEAESKQTEKDPGVQELEALIDTIQKQLKDHSCKDNIREAFQIYDKEASGYVDRDMFFKICESLNVPVDDSLVKELIRMCSHGEGKINYYNFVRAFSN | largely maintained |
